Assay results: the DeepSol protein solubility set

Test: soluble on expression in E. coli; label from the status in PepcDB or PDB records

Which “soluble on expression in E. coli” value does the source give for “MGSDKIHHHHHHMVNIEIDEGSGFCFGVTTAIRKAEEELAKGNTLYCLGDIVHNGQECERLKKMGLITINHEEFAQLHDAKVLLRAHGEPPETYAIARTNNIEIIDATCPVVLRLQKRIKQEYDNVPASQDTQIVIYGKNGHAEVLGLVGQTHGKAIVIETPAEAAHLDFTKDIRLYSQTTKSLEEFWQIIEYIKEHISPDATFEYYDTICRQVANRMPNIRKFAAAHDLIFFVCGRKSSNGKILYQECKKINPNSYLIDQPEEIDRNLLEDVRSIGICGATSTPKWLMEECKKAILNEK” here?
Its value is “not soluble”.

With “MKILLIEDNQRTQEWVTQGLSEAGYVIDAVSDGRDGLYLALKDDYALIILDIMLPGMDGWQILQTLRTAKQTPVICLTARDSVDDRVRGLDSGANDYLVKPFSFSELLARVRAQLRQHHALNSTLEISGLRMDSVSHSVSRDNISITLTRKEFQLLWLLASRAGEIIPRTVIASEIWGINFDSDTNTVDVAIRRLRAKVDDPFPEKLIATIRGMGYSFVAVKK” as the sequence, how does the “soluble on expression in E. coli” value read?
Its value is “soluble”.

Which “soluble on expression in E. coli” value does the source give for “MGSDKIHHHHHHMSDVDTHPIDRGAGGHNPQKPIRVAQIVGKMVGGGVEAVVMNYYRHIDRSKVQFDFLVDEDSTRVPEEEITSLGGRVFRIPPYQHPIRYRRELIRLMREQQWPIVHSNINTLSVFPLSAAKKVGVPVRIAHSHSTMGKGEFAKNVMKLVLRPFANVYPTVRFACSRYAGKWLFGKNADFTVIPNAIELDKFRFNTEMRKQTRKELGISDDTFLIGHVGRFMPQKNQTFLVDVLAGLLPKRPDAMLAFVGDGPDRTAVQQHVEELGMADHVLFLGQRSDVNRLYQAFDAFCLPSLYEGLGIVAVEAQVADLPCLLSDVVPSEADVTASSYFLQITDVKPWIETLSNLHSSKRSDQISGDIEEYDIQRCANSLVKKYESFICK” here?
The value was “not soluble”.

Which “soluble on expression in E. coli” value does the source give for “MAHHHHHHMWTAPPSLRTVRPIFLPLNVVANSTSSLLLHPGQLDLKHVEGYMTSKKWLSKLKCCGDNPLTVDEMKALVLMFLKKISDTYVDDQAKWMNKMRSSQEEQGKALEEAMNEYEKNILFNHALKEQQLLHNNKKISEWNETIENAYEAQQEVLRQFEAKKREDKKKMALEKNNELIIAKDYIDKIKEAATDSRYANSKCFVYPASSAPCGACTSAGAIAPYRRFKEPRRKKQYSLCL” here?
The value was “not soluble”.

For “MGSDKIHHHHHHMLVRQEALSSKMSIKDLPSSSPLPNANLVLVFGSVRRFSDGKLPTQLKERYPAAQIVGCTTSGEIGPHGVSDDSLQITAIAWDNTMQRVTYARANNMQTSAETAINLAKQLKSDSLRTILVFSDGLHINGSELLQGFQSVLGDIPIVGGMAGDNAEFSRTLQLLNDSIEEGLVVAIGLYGDKLITASGALGGWKPYGPPRKITRSEKNVVYEMDGKPALPLYRMYIGEQNAKALPGSGLRFPFAVIEEGKREVEKVRTLLAIDPEENSLTFAGNVEEGETVRLCQTTHDRLVEGAGGAARLVTANLDTSQPGLALCVSCVGRKLVMAEQIADEIQAVQQTLGSQTALTGFYSYGEFCPRPNTTDNVLHNQTMTIGYLSEAL”, which “soluble on expression in E. coli” value is on record?
The value was “not soluble”.

With “MSLIVTAYTQEGIVIGADSCITTNFTQEGKELYKHSHCGNKLFLLNKKIGISTCGDAIINGILLSSLIDQYIWSKKEENITLLQVEIDLKNIVNNQAKGKEYYVIFHICGYENGKRYVSKFDNNDKESHIKDVSERDGCIYDGQVDIVDLFSQDVAYRGTDGLYYDINIERCRYNELSLQETIEYVYFLISTTIQHMRFTYKKDNVGFPIDILVIMPNESLWLQKKELHIPGNY” as the sequence, how does the “soluble on expression in E. coli” value read?
The value was “not soluble”.

For “IPLARTVRCNCIHIDDGPVRMRAIGKLEIIPASLSCPRVEIIATMKKNDEQRCLNPESKTIKNLMKAF”, which “soluble on expression in E. coli” value is on record?
Its value is “soluble”.

Which “soluble on expression in E. coli” value does the source give for “MRILKIYENKGVYKVVIGEPFPPIEFPLEQKISSNKSLSELGLTIVQQGNKVIVEKSLDLKEHIIGLGEKAFELDRKRKRYVMYNVDAGAYKKYQDPLYVSIPLFISVKDGVATGYFFNSASKVIFDVGLEEYDKVIVTIPEDSVEFYVIEGPRIEDVLEKYTELTGKPFLPPMWAFGYMISRYSYYPQDKVVELVDIMQKEGFRVAGVFLDIHYMDSYKLFTWHPYRFPEPKKLIDELHKRNVKLITIVDHGIRVDQNYSPFLSGMGKFCEIESGELFVGKMWPGTTVYPDFFREDTREWWAGLISEWLSQGVDGIWLDMNEPTDFSRAIEIRDVLSSLPVQFRDDRLVTTFPDNVVHYLRGKRVKHEKVRNAYPLYEAMATFKGFRTSHRNEIFILSRAGYAGIQRYAFIWTGDNTPSWDDLKLQLQLVLGLSISGVPFVGCDIGGFQGRNFAEIDNSMDLLVKYYALALFFPFYRSHKATDGIDTEPVFLPDYYKEKVKEIVELRYKFLPYIYSLALEASEKGHPVIRPLFYEFQDDDDMYRIEDEYMVGKYLLYAPIVSKEESRLVTLPRGKWYNYWNGEIINGKSVVKSTHELPIYLREGSIIPLEGDELIVYGETSFKRYDNAEITSSSNEIKFSREIYVSKLTITSEKPVSKIIVDDSKEIQVEKTMQNTYVAKINQKIRGKINLE” here?
The value was “soluble”.

Which “soluble on expression in E. coli” value does the source give for “MGSDKIHHHHHHMSKLLMIGTGPVAIQLANICYLKSDYEIDMVGRASTSEKSKRLYQAYKKEKQFEVKIQNEAHQHLEGKFEINRLYKDVKNVKGEYETVVMACTADAYYDTLQQLSLETLQSVKHVILISPTFGSQMIVEQFMSKFSQDIEVISFSTYLGDTRIVDKEAPNHVLTTGVKKKLYMGSTHSNSTMCQRISALAEQLKIQLEVVESPLHAETRNSSLYVHPPLFMNDFSLKAIFEGTDVPVYVYKLFPEGPITMTLIREMRLMWKEMMAILQAFRVPSVNLLQFMVKENYPVRPETLDEGDIEHFEILPDILQEYLLYVRYTAILIDPFSQPDENGHYFDFSAVPFKQVYKNEQDVVQIPRMPSEDYYRTAMIQHIGKMLGIKTPMIDQFLTRYEASCQAYKDMHQDQQLSSQFNTNLFEGDKALVTKFLEINRTLS” here?
Its value is “not soluble”.

With “MSLGSLVIKKSIIAALVVALGIAGQSVQAESVPDETLQSEKVQTEKVQAEKTETDLFSPVEQIMNPFYPKYPPTKPATGEQAELIKRGEYLAKMGDCIACHTDVEGGTPAYAGGLPINTPFGLFYSPNITPDKETGIGNWTEKDFIRALKDGRDPKGRNYFPVFPYVYFSKITDDDARALYAYFMSIPPVKLKNKSLPFPFGVPGARFALWGWNLLFFFPQENSIEYDPDKSPEWNRGRYIVDTLGHCSMCHTPMNIFGSAKNRYYLTGSFIDGYWAPNITKYGLESASHQEVADVFKAGELINKAGPVAGPMAEVNHNSLSHLTEEDRLAIATYLKTVESEEYLGVSPSDLPPSVARGRQVYLKACLICHKDNKMGAPVIGDSASWYTRLKNSGLTGLYRHAIYGYNQMPVKGACVTCSDNDIISAVDYLLNASLTRSQWQDLASGGVKKYPASGKAVYNENCAVCHNEGKLGAPKIGDKVTWKPLIAQNMDVLIENTIRGKNHLPNGGCNHCSTDEVIEAIKYMVSQSKTEGNYSLWEGHHHHHH” as the sequence, how does the “soluble on expression in E. coli” value read?
Its value is “not soluble”.

For “MSTSRDRVRQALSHQGSDRIPVDFGATAVTGIHCRVVEALRKHYGLSYKPVKIVDTFQMLGEVDRDLADAMGVDCIGVGGTRDIFDHDTECMHEQVTPWGQKVLVPIQLDLTQDKEGDVYVYAGGDKNYPPSAVMPNGCFFINAIERQQPIDEDKLNPMDNLEEFNSITDEELDVYKKKVNEASATGRAVVASFGGTALGDVAFVPGMGLKEPKGIRSVVEWYMSTVMRQEYLHEIFRRQTDIAIANYEKLWAVLGDKVDVVLTCGTDFGSQESQFCSVEVFNELWLPHYRRMNDWIHEHTTWKVFKHSCGAIVPILPGLIKAGFDIINPVQINAKDMDSGMLKREFGSHLTFWGGGVDTQKMLPFGTPDEIRRHVLGQCEILGKDGGFVFNSVHNIQANVPVENVIAMLDALKTVLEHHHHHH”, which “soluble on expression in E. coli” value is on record?
Its value is “not soluble”.

Which “soluble on expression in E. coli” value does the source give for “MSLELSQKKWKSFKISEIFRIESCKCGNASLLEDGDDLFYRGAKKNDNGVIRRVKRIDSLVSKGNCIMFICDGDGSCGYTNYISDDFIGSTTTSVGYNENLNVYIGTFITTILDMHKYKYSHSRKYRNSLLNEILILPINNDGIPDWKWIEEYMKSLSGSINTQIYDIIDTADGDRNIVKFFINKIEASDFKLWLQDNANMDVNNQMSLKDVKWKGFKLSELFNIERGCRLKKSNRITGNTLLITAGKENHGIAMYVEPPMNSEGNLINKIYKDRLTIDMFCNSFYQSENFICDDNILVLIEKQKMTKNIKHFIATILSMDIYKFSFTRQYRQKDFNKHIIMLPINDKGNLDWEWIEEYMKSLPYSDKETRLFVNTIEGHHHHHH” here?
Its value is “soluble”.

For “PGRLHNAIVRPRVLDLLQHATCYKLVLFRSPAGYGKTTMAAQWLADKPNLGWYSIDDSDNDPFRFMNYLLQAINKATHN”, which “soluble on expression in E. coli” value is on record?
The value was “not soluble”.

Which “soluble on expression in E. coli” value does the source give for “MGSDKIHHHHHHMAITIQNHELQVTLKALGATMTSITDSQGVEYLWQGDATYWGGQAPILFPICGSVRNDCVIYRPAQAPHFTGIIPRHGFVRHKTFDYDYISDSSVRFTIKSSKEMLINYPYRFSLEITYTLRNKSIAITYIVKNLESEKNMPYAIGAHPGFNCPLFEKEVFSDYYLEFEQFETCTIPESFPDTGLLDLQARHPFLENQKQLSLNHALFEKDAITLDQLRSKTVYLKSRNHAKGIQLDFDDFENLILWTSNNGGPFLALEPWSSLSTSIEESDILEDKQNIVRLNPKQSKQHSIRITIL” here?
Its value is “not soluble”.

With “MGSDKIHHHHHHMSISLNTCILILKEHHLLKSSAVQDTVATKMDYVSYDSRDIQTNTLFFCKGAGFRPTYLSMAKSNGANCYVAEQPYPEGKGMHALIVRDVSKAMALLSAAFFRFPQDDLYVVAFTGTKGKTTSAYFLKGMLDQANGGRTALISSVNDVVGPKPEDSFKSSLTTPESLDLFRDMRTAVDNGMTHLVMEVSSQAYKKNRVFGLTYDLGFFLNISPDHIGPNEHPNFADYLHCKLQLMVNSRKCIINAETANFNEVYAAATTTTNPDSIYLFAREDFENPDLDVPIDFRFASQELDMKETRFKLFCATDKAKKLPINGDYTLKMLGDFNESNGTAAIIGAGLAGLNHDQCAKGIRNVTIPGRMQTERTKEHGMVVVDYAHNKASMMALMRFMQNEFNDPKIIVVVGAPGDKGVSRRPGFSESLSAYADKAFLTTDDPGFEDPKSIAEEIDAGIDHSKCDVTIELDRKKAIHDAIASAGPDDVVLICGKGADAFQKIRGVDTPYPSDIVVAQQVINELEGQDEHFRK” as the sequence, how does the “soluble on expression in E. coli” value read?
The value was “not soluble”.

With “MVNVRGPVLEVDDPKSVETSHGTSQLAEVVIRPERGAASPTTVTLWGKWTETVEYLAVGMELLATDLDERTFDGDTQYSTTGESAVVVEPDFLVDVTDIRGWVQCPRMYYLNKLTGLPLKYPVLKGTVVHEVFGDLLRGRDLESSIESRVAEAALDIGLLGETADAVADDVRQNAAAIQGWLQQGRFGEDSWRSEQTLISERFGIKGRADAVRRGMPVELKTGKNLKRSPRFQDKVQAACYGLLLADDIADPPDTGTLLYTKNSALDRSEESGDLSPAKEFSIGPGFLKYVLRVRNEIAAAEYDMSVPTGFEADANCDYCFEQDTCMVVSGRLDQESKAGQLGEPLPEPERAYFERLYRAIEEERREVHAEYRKLWEQSAAERADDDRALVDLDPLGREPLDGGRWALSARRTSDAVSKIREGDRVLASDGHPTQGTAELATVRHLDDEIVVVADEPFELRRIDVYPSELGVDRQLTALHDAVLRGDPDRKDVLFGRREPSFVGDHRPIIDNNESQNEAVNRALAAEDFALIHGPPGTGKTYTLAQTVQALVARGDRVLLSAFTNRAVDNAIEALEAQGFTDVLRWGSESGVRDDMQSYRFDRTGDPRERAAALRDAQVVAATTAACGSRALKQQQFDVAVIDEAGQLTEPGTFLATNRADRFVLVGDHEQLPPVVRAENDLQTSLFEQLIDDYPDAAVMLDRQYRMSQRIQYFASREFYDGQLRPANAEVASQRLADLDGVDVSTLPSALRDAVSFVDPGLEHHHHHH” as the sequence, how does the “soluble on expression in E. coli” value read?
The value was “not soluble”.

For “MDYRVLLYYKYTTIDDPELFATEHLAFCKDLELKGRILVSTEGINGTVSGTVEATDKYMEALKNDARFQGITFKVDEAEGHAFKKMHVRPRQEIVALDLEDDVNPRELTGNYLSPKEFREALLSDDTVVIDARNDYEYDLGHFRGAVRPDITRFRDLPDWIKENKEQFMDKKIVTYCTGGIRCEKFSGYLLKEGFEDVSQLEGGIATYGKDPETKGEFWDGKMYVFDERISVEVNHVDKTVVGKEWFDGTPCERYINCSNPECNKQILVSEENEARYLGACSHECAKHENNRYVKKHNISDEEKAKRLENFKELVKLEHHHHHH”, which “soluble on expression in E. coli” value is on record?
The value was “not soluble”.
